Measured values from patent publication US20250129170A1.

Each substance was assayed against human EPOR on cells (293T/EPOR cells; UT-7 cells) (human) (UniProt P19235) (assay: cell-based or functional assay).
human EPOR on cells (293T/EPOR cells; UT-7 cells) (human), sequence (P19235 25-508): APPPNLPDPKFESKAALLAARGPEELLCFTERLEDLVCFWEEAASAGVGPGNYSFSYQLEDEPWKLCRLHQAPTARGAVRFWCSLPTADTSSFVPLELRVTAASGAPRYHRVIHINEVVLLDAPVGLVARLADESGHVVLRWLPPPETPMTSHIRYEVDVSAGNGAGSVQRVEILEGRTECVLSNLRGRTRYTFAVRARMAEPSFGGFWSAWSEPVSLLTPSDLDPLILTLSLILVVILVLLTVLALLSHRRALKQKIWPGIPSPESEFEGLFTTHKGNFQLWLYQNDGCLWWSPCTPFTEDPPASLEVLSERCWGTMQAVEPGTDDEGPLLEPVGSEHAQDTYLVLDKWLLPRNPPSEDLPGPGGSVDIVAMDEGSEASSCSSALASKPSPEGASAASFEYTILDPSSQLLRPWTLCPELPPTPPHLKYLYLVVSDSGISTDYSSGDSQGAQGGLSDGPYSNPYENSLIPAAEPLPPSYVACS

Question: “IME009 (EPO-Fc, K45D/R103A) (from UniProt P01588 28-193) (Fc fusion)” was tested. Which EPO-mediated Stat5 Phosphorylation in 293T/EPOR, Elisa did it give?
Answer: 13%

Question: How did the EPO-mediated Stat5 Phosphorylation in 293T/EPOR, Elisa turn out when “IME047 (EPO-HSA, K140A/K152A) (from UniProt P01588 28-193)” was run?
Answer: 23%

Question: With “IME011 (EPO-Fc, R150E/R103A) (from UniProt P01588 28-193) (Fc fusion)” as the substance, how does the EPO-mediated Stat5 Phosphorylation in 293T/EPOR, Elisa read?
Answer: 5%

Question: “IME005 (EPO-Fc, K45D) (from UniProt P01588 28-193) (Fc fusion)” was tested. Which EPO-mediated Stat5 Phosphorylation in 293T/EPOR, Elisa did it give?
Answer: 86%

Question: For “IME014 (EPO-Fc, E72R) (from UniProt P01588 28-193) (Fc fusion)”, which EPO-mediated Stat5 Phosphorylation in 293T/EPOR, Elisa is on record?
Answer: 82%

Question: For “IME033 (EPO-Fc, E72A) (from UniProt P01588 28-193) (Fc fusion)”, which EPO-mediated Stat5 Phosphorylation in 293T/EPOR, Elisa is on record?
Answer: 75%

Question: With “IME049 (EPO-HSA, K20A/K45A/K52A/K140A/K152A/K154A) (from UniProt P01588 28-193)” as the substance, how does the EPO-mediated Stat5 Phosphorylation in 293T/EPOR, Elisa read?
Answer: 15%

Question: Which EPO-mediated Stat5 Phosphorylation in 293T/EPOR, Elisa does the source give for “IME006 (EPO-Fc, N147K) (from UniProt P01588 28-193) (Fc fusion)” here?
Answer: 37%

Question: With “IME038 (EPO-Fc, L69A) (from UniProt P01588 28-193) (Fc fusion)” as the substance, how does the EPO-mediated Stat5 Phosphorylation in 293T/EPOR, Elisa read?
Answer: 57%

Question: How did the EPO-mediated Stat5 Phosphorylation in 293T/EPOR, Elisa turn out when “IME031 (HSA-HBSP, helix B surface peptide fused to albumin)” was run?
Answer: 0%

Question: How did the EPO-mediated Stat5 Phosphorylation in 293T/EPOR, Elisa turn out when “IME045 (EPO-HSA, Q65A/E72R/N83A) (from UniProt P01588 28-193)” was run?
Answer: 105%

Question: For “IME007 (EPO-Fc, R150E) (from UniProt P01588 28-193) (Fc fusion)”, which EPO-mediated Stat5 Phosphorylation in 293T/EPOR, Elisa is on record?
Answer: 27%

Question: For “IME037 (EPO-Fc, Q58A) (from UniProt P01588 28-193) (Fc fusion)”, which EPO-mediated Stat5 Phosphorylation in 293T/EPOR, Elisa is on record?
Answer: 71%

Question: Which EPO-mediated Stat5 Phosphorylation in 293T/EPOR, Elisa does the source give for “IME046 (EPO-HSA, K20A/K45A/K52A) (from UniProt P01588 28-193)” here?
Answer: 90%

Question: Which EPO-mediated Stat5 Phosphorylation in 293T/EPOR, Elisa does the source give for “IME039 (EPO-Fc, L80A) (from UniProt P01588 28-193) (Fc fusion)” here?
Answer: 32%

Question: With “IME010 (EPO-Fc, N147K/R103A) (from UniProt P01588 28-193) (Fc fusion)” as the substance, how does the EPO-mediated Stat5 Phosphorylation in 293T/EPOR, Elisa read?
Answer: 5%

Question: Which EPO-mediated Stat5 Phosphorylation in 293T/EPOR, Elisa does the source give for “IME032 (EPO-Fc, E62A) (from UniProt P01588 28-193) (Fc fusion)” here?
Answer: 2%

Question: How did the EPO-mediated Stat5 Phosphorylation in 293T/EPOR, Elisa turn out when “IME015 (EPO-Fc, R76E) (from UniProt P01588 28-193) (Fc fusion)” was run?
Answer: 27%

Question: Which EPO-mediated Stat5 Phosphorylation in 293T/EPOR, Elisa does the source give for “IME043 (EPO-HSA, R103A) (from UniProt P01588 28-193)” here?
Answer: 0%

Question: For “IME013 (EPO-Fc, Q65A) (from UniProt P01588 28-193) (Fc fusion)”, which EPO-mediated Stat5 Phosphorylation in 293T/EPOR, Elisa is on record?
Answer: 100%

Question: With “IME012 (EPO-Fc, E62R) (from UniProt P01588 28-193) (Fc fusion)” as the substance, how does the EPO-mediated Stat5 Phosphorylation in 293T/EPOR, Elisa read?
Answer: 4%

Question: “IME034 (EPO-Fc, R76A) (from UniProt P01588 28-193) (Fc fusion)” was tested. Which EPO-mediated Stat5 Phosphorylation in 293T/EPOR, Elisa did it give?
Answer: 5%

Question: “IME048 (EPO-HSA, K140A/K152A/K154A) (from UniProt P01588 28-193)” was tested. Which EPO-mediated Stat5 Phosphorylation in 293T/EPOR, Elisa did it give?
Answer: 11%

Question: With “IME030 (HSA-HBP, helix B peptide fused to albumin)” as the substance, how does the EPO-mediated Stat5 Phosphorylation in 293T/EPOR, Elisa read?
Answer: 0%

Question: With “IME044 (EPO-HSA, Q65A/E72R) (from UniProt P01588 28-193)” as the substance, how does the EPO-mediated Stat5 Phosphorylation in 293T/EPOR, Elisa read?
Answer: 94%

Question: Which EPO-mediated Stat5 Phosphorylation in 293T/EPOR, Elisa does the source give for “IME008 (EPO-Fc, R103A) (from UniProt P01588 28-193) (Fc fusion)” here?
Answer: 30%
